In PMC5882242, “Functional roles of Mg^2+ binding sites in ion-dependent gating of a Mg^2+ channel, MgtE, revealed by solution NMR” (eLife, 2018):

Target: the molecule itself
Experiment: SEC; Superdex 200 GL 10/300; 20 mM HEPES-NaOH (pH 6.1), 100 mM NaCl, 1 mM DDM; BSA monomer, dimer and tetramer as standards; MgtE in DDM micelles

B1: full-length MgtE from Thermus thermophilus (natural protein, UniProt Q5SMG8 1-450, looked up)
chain: MEEKLAVSLQEALQEGDTRALREVLEEIHPQDLLALWDELKGEHRYVVLTLLPKAKAAEVLSHLSPEEQAEYLKTLPPWRLREILEELSLDDLADALQAVRKEDPAYFQRLKDLLDPRTRAEVEALARYEEDEAGGLMTPEYVAVREGMTVEEVLRFLRRAAPDAETIYYIYVVDEKGRLKGVLSLRDLIVADPRTRVAEIMNPKVVYVRTDTDQEEVARLMADYDFTVLPVVDEEGRLVGIVTVDDVLDVLEAEATEDIHKLGAVDVPDLVYSEAGPVALWLARVRWLVILILTGMVTSSILQGFESVLEAVTALAFYVPVLLGTGGNTGNQSATLIIRALATRDLDLRDWRRVFLKEMGVGLLLGLTLSFLLVGKVYWDGHPLLLPVVGVSLVLIVFFANLVGAMLPFLLRRLGVDPALVSNPLVATLSDVTGLLIYLSVARLLLEAV
notes: MgtE, Mg2+ channel of Thermus thermophilus, full length (residues 1-450: cytoplasmic region 1-263, transmembrane region 264-450); plasmid with N-terminal His x 6 tag and HRV-3C protease recognition site; Dimer in DDM micelles by SEC; theoretical M.W. 50 kDa a subunit; The construct is described in Hattori et al., 2007a; also called wild-type MgtE; WT; source: E. coli C41 (DE3), solubilized in …
  stoichiometry N: 2
